This passage reports Kd results from patent publication US20250369013A1 (ENSOMA, published 2025).

The test deals with T1, CD46 (UniProt P15529 35-343).
T1 construct: The form used in the Kd measurement is not described
T1 sequence: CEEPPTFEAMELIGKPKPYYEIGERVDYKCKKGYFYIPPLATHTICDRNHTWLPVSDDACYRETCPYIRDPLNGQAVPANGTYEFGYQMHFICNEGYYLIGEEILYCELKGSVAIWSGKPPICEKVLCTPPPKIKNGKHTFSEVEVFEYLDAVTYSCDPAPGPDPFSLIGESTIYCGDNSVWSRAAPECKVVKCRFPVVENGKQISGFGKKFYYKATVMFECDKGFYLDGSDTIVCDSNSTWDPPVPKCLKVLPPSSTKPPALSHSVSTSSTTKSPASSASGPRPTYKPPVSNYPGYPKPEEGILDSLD
The experiment in a line: Kd of knob for CD46; method not stated.

B1: Mutated Ad35 Knob A8: Ile192Val Ile256Val (other)
chain: LWTGINPPPNCQIVENTNTNDGKLTLVLVKNGGLVNGYVSLVGVSDTVNQMFTQKTANVQLRLYFDSSGNLLTEESDLKIPLKNKSSTATSETVASSKAFMPSTTAYPFNTTTRDSENYIHGVCYYMTSYDRSLFPLNISIMLNSRMISSNVAYAIQFEWNLNASESPESNIATLTTSPFFFSYITEDDN
On to B1, for which the Kd is 13.7 nM.

B2: wtAd35(207Asp) knob (other)
chain: LWTGINPPPNCQIVENTNTNDGKLTLVLVKNGGLVNGYVSLVGVSDTVNQMFTQKTANIQLRLYFDSSGNLLTDESDLKIPLKNKSSTATSETVASSKAFMPSTTAYPFNTTTRDSENYIHGICYYMTSYDRSLFPLNISIMLNSRMISSNVAYAIQFEWNLNASESPESNIATLTTSPFFFSYITEDDN
notes: also called B2
Molecule B2 came in with an equilibrium dissociation constant (Kd) of 15 nM.

B3: Ad11 (fiber knob) (other)
chain: LWTGVNPTEANCQIMNSSESNDCKLILTLVKTGALVTAFVYVIGVSNNFNMLTTHRNINFTAELFFDSTGNLLTRLSSLKTPLNHKSGQNMATGAITNAKGFMPSTTAYPFNDNSREKENYIYGTCYYTASDRTAFPIDISVMLNRRAINDETSYCIRITWSWNTGDAPEVQTSATTLVTSPFTFYYIREDD
notes: also called B7
In the case of B3, the Kd came out at 11.2 nM.
